Data from article PMC7948974, “Heme oxygenase-1 affects cytochrome P450 function through the formation of heteromeric complexes: Interactions between CYP1A2 and heme oxygenase-1” (The Journal of Biological Chemistry, 2020).

Target: T1, GFP-HO-1 (heme oxygenase 1 with an N-terminal GFP2 tag) (human, UniProt P09601 1-288)
T1 sequence (looked up): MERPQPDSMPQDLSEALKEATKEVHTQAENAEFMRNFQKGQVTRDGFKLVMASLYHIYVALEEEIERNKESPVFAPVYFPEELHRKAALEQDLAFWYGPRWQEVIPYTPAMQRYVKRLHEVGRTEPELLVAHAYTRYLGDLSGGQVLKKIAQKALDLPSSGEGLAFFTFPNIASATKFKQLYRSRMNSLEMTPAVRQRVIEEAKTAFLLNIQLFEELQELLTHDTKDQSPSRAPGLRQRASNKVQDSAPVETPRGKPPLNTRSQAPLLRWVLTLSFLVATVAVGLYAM
Experiment: cell-based or functional assay

B1: POR-Rluc (NADPH-cytochrome P450 reductase with a C-terminal Rluc tag) (enzyme, human, UniProt P16435 1-677, looked up)
chain: MGDSHVDTSSTVSEAVAEEVSLFSMTDMILFSLIVGLLTYWFLFRKKKEEVPEFTKIQTLTSSVRESSFVEKMKKTGRNIIVFYGSQTGTAEEFANRLSKDAHRYGMRGMSADPEEYDLADLSSLPEIDNALVVFCMATYGEGDPTDNAQDFYDWLQETDVDLSGVKFAVFGLGNKTYEHFNAMGKYVDKRLEQLGAQRIFELGLGDDDGNLEEDFITWREQFWPAVCEHFGVEATGEESSIRQYELVVHTDIDAAKVYMGEMGRLKSYENQKPPFDAKNPFLAAVTTNRKLNQGTERHLMHLELDISDSKIRYESGDHVAVYPANDSALVNQLGKILGADLDVVMSLNNLDEESNKKHPFPCPTSYRTALTYYLDITNPPRTNVLYELAQYASEPSEQELLRKMASSSGEGKELYLSWVVEARRHILAILQDCPSLRPPIDHLCELLPRLQARYYSIASSSKVHPNSVHICAVVVEYETKAGRINKGVATNWLRAKEPAGENGGRALVPMFVRKSQFRLPFKATTPVIMVGPGTGVAPFIGFIQERAWLRQQGKEVGETLLYYGCRRSDEDYLYREELAQFHRDGALTQLNVAFSREQSHKVYVQHLLKQDREHLWKLIEGGAHIYVCGDARNMARDVQNTFYDIVAELGAMEHAQAVDYIKKLMTKGRYSLDVWS
apparent Km^POR•HO-1 from HO-1-mediated heme degradation against POR concentration 0.025-0.5 μM; purified recombinant HO-1 (0.1 μM) and POR in DLPC, in the presence of 0.1 μM CYP1A2: 0.024 µM
